B1: Lmod2[451–492] (peptide)
peptide: PLPEKKLITRNIAEVIKQQESAQRALQNGQRKKKGKKVKKQP
notes: also called C-terminal Lmod2 fragment after the polyP region; source: synthetic peptide (Tufts University Core Facility)
B2: Lmod2[387–426] (peptide)
peptide: WQRGTPGSSPYASPRQSPWSSPKVSKKVHTGRSRPPSPVA
notes: also called C-terminal Lmod2 fragment between the LRR domain and the polyP region; source: synthetic peptide (Tufts University Core Facility)
B3: Lmod2[518–543] (peptide)
peptide: STPQRSVHENLMEAIRGSSIRQLRRV
notes: also called Lmod2 fragment containing the WH2 domain; source: synthetic peptide (Tufts University Core Facility)

The target of the test is G-actin (UniProt P68135 1-377). Briefly: native gel or EMSA; 9% polyacrylamide, 10% glycerol, no SDS; fragments mixed with 5 μM G-actin at 1:2, 1:1, 1.5:1 and 2:1 molar ratios (Lmod2[518–543] at 2:1 only); densitometry of the actin band. To be noted: both partners purified.
As to B1, the “percent of the actin in complex at a 2:1 fragment to actin molar ratio” value (“percent of the actin … to actin molar ratio” for short) was ~60%.

In the case of B2, the “percent of the actin … to actin molar ratio” value is ~70%.

For B3, the “percent of the actin … to actin molar ratio” value is ~90%.

(Values after publication PMC11813103, “Interaction of cardiac leiomodin with the native cardiac thin filament” (PLOS Biology, 2025).)
